Experimental data as given in patent US20110105394A1 (Novo Nordisk, published 2011).
One block for each binder: values may come before it. *1 amine or outer side, *2 acyl side, *3 side chain or, on linkers, in order; H or OH if unused. Bridges are numbered along the chain shown (N, C = ends). The star is where a group is joined. C20 diacid = O=C(O)CCCCCCCCCCCCCCCCCCC(=O)*; γGlu = O=C(O)[C@H](CCC(=O)[*:2])N[*:1]

Biological target: T1, Amylin 3(a) receptor (human calcitonin receptor (CTa) with RAMP-3) (human) (UniProt P30988)
T1 sequence (looked up) 1: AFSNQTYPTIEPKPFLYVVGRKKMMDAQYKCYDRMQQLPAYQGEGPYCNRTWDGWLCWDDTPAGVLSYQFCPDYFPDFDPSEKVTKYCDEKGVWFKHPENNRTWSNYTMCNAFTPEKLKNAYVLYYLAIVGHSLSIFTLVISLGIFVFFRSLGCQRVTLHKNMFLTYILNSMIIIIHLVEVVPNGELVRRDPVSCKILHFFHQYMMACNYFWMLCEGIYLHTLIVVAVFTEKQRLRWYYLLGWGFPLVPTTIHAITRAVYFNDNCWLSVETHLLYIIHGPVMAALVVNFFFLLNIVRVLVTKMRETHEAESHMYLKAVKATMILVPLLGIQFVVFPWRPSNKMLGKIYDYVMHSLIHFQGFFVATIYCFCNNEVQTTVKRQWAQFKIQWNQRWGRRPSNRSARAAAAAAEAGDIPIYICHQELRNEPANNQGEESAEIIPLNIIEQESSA
T1 sequence (looked up) 2: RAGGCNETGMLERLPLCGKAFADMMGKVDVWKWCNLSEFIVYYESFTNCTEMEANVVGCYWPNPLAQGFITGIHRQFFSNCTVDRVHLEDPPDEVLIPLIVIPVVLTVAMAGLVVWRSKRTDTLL
Test: cell-based or functional assay

Potency Luciferase: 0.2 nM
B1: N-alpha-[(S)-4-Carboxy-4-(19-carboxynonadecanoylamino)butyryl]-Glu-His-Arg-[Arg1,His17]-pramlintide (peptide)
peptide: {C20 diacid-γGlu}-EHRRCNTATCATQRLANFLHHSSNNFGPILPPTNVGSNTY-NH2
modifications: disulfide 5-10
SMILES: CC[C@H](C)[C@H](NC(=O)[C@@H]1CCCN1C(=O)CNC(=O)[C@H](Cc1ccccc1)NC(=O)[C@H](CC(N)=O)NC(=O)[C@H](CC(N)=O)NC(=O)[C@H](CO)NC(=O)[C@H](CO)NC(=O)[C@H](Cc1c[nH]cn1)NC(=O)[C@H](Cc1c[nH]cn1)NC(=O)[C@H](CC(C)C)NC(=O)[C@H](Cc1ccccc1)NC(=O)[C@H](CC(N)=O)NC(=O)[C@H](C)NC(=O)[C@H](CC(C)C)NC(=O)[C@H](CCCNC(=N)N)NC(=O)[C@H](CCC(N)=O)NC(=O)[C@@H](NC(=O)[C@H](C)NC(=O)[C@@H]1CSSC[C@H](NC(=O)[C@H](CCCNC(=N)N)NC(=O)[C@H](CCCNC(=N)N)NC(=O)[C@H](Cc2c[nH]cn2)NC(=O)[C@H](CCC(=O)O)NC(=O)CC[C@H](NC(=O)CCCCCCCCCCCCCCCCCCC(=O)O)C(=O)O)C(=O)N[C@@H](CC(N)=O)C(=O)N[C@@H]([C@@H](C)O)C(=O)N[C@@H](C)C(=O)N[C@@H]([C@@H](C)O)C(=O)N1)[C@@H](C)O)C(=O)N[C@@H](CC(C)C)C(=O)N1CCC[C@H]1C(=O)N1CCC[C@H]1C(=O)N[C@H](C(=O)N[C@@H](CC(N)=O)C(=O)N[C@H](C(=O)NCC(=O)N[C@@H](CO)C(=O)N[C@@H](CC(N)=O)C(=O)N[C@H](C(=O)N[C@@H](Cc1ccc(O)cc1)C(N)=O)[C@@H](C)O)C(C)C)[C@@H](C)O

Potency Luciferase: 0.1 nM
B2: N-alpha-[(S)-4-Carboxy-4-(19-carboxynonadecanoylamino)butyryl]-Glu-His-Arg-[His1,His17]-pramlintide (peptide)
peptide: {C20 diacid-γGlu}-EHRHCNTATCATQRLANFLHHSSNNFGPILPPTNVGSNTY-NH2
modifications: disulfide 5-10
SMILES: CC[C@H](C)[C@H](NC(=O)[C@@H]1CCCN1C(=O)CNC(=O)[C@H](Cc1ccccc1)NC(=O)[C@H](CC(N)=O)NC(=O)[C@H](CC(N)=O)NC(=O)[C@H](CO)NC(=O)[C@H](CO)NC(=O)[C@H](Cc1c[nH]cn1)NC(=O)[C@H](Cc1c[nH]cn1)NC(=O)[C@H](CC(C)C)NC(=O)[C@H](Cc1ccccc1)NC(=O)[C@H](CC(N)=O)NC(=O)[C@H](C)NC(=O)[C@H](CC(C)C)NC(=O)[C@H](CCCNC(=N)N)NC(=O)[C@H](CCC(N)=O)NC(=O)[C@@H](NC(=O)[C@H](C)NC(=O)[C@@H]1CSSC[C@H](NC(=O)[C@H](Cc2c[nH]cn2)NC(=O)[C@H](CCCNC(=N)N)NC(=O)[C@H](Cc2c[nH]cn2)NC(=O)[C@H](CCC(=O)O)NC(=O)CC[C@H](NC(=O)CCCCCCCCCCCCCCCCCCC(=O)O)C(=O)O)C(=O)N[C@@H](CC(N)=O)C(=O)N[C@@H]([C@@H](C)O)C(=O)N[C@@H](C)C(=O)N[C@@H]([C@@H](C)O)C(=O)N1)[C@@H](C)O)C(=O)N[C@@H](CC(C)C)C(=O)N1CCC[C@H]1C(=O)N1CCC[C@H]1C(=O)N[C@H](C(=O)N[C@@H](CC(N)=O)C(=O)N[C@H](C(=O)NCC(=O)N[C@@H](CO)C(=O)N[C@@H](CC(N)=O)C(=O)N[C@H](C(=O)N[C@@H](Cc1ccc(O)cc1)C(N)=O)[C@@H](C)O)C(C)C)[C@@H](C)O

Potency Luciferase: 0.1 nM
B3: N-alpha-[(S)-4-Carboxy-4-(19-carboxynonadecanoylamino)butyryl]-GluHis-His-[Arg1,His17,Gln21]-pramlintide (peptide)
peptide: {C20 diacid-γGlu}-EHHRCNTATCATQRLANFLHHSSQNFGPILPPTNVGSNTY-NH2
modifications: disulfide 5-10
SMILES: CC[C@H](C)[C@H](NC(=O)[C@@H]1CCCN1C(=O)CNC(=O)[C@H](Cc1ccccc1)NC(=O)[C@H](CC(N)=O)NC(=O)[C@H](CCC(N)=O)NC(=O)[C@H](CO)NC(=O)[C@H](CO)NC(=O)[C@H](Cc1c[nH]cn1)NC(=O)[C@H](Cc1c[nH]cn1)NC(=O)[C@H](CC(C)C)NC(=O)[C@H](Cc1ccccc1)NC(=O)[C@H](CC(N)=O)NC(=O)[C@H](C)NC(=O)[C@H](CC(C)C)NC(=O)[C@H](CCCNC(=N)N)NC(=O)[C@H](CCC(N)=O)NC(=O)[C@@H](NC(=O)[C@H](C)NC(=O)[C@@H]1CSSC[C@H](NC(=O)[C@H](CCCNC(=N)N)NC(=O)[C@H](Cc2c[nH]cn2)NC(=O)[C@H](Cc2c[nH]cn2)NC(=O)[C@H](CCC(=O)O)NC(=O)CC[C@H](NC(=O)CCCCCCCCCCCCCCCCCCC(=O)O)C(=O)O)C(=O)N[C@@H](CC(N)=O)C(=O)N[C@@H]([C@@H](C)O)C(=O)N[C@@H](C)C(=O)N[C@@H]([C@@H](C)O)C(=O)N1)[C@@H](C)O)C(=O)N[C@@H](CC(C)C)C(=O)N1CCC[C@H]1C(=O)N1CCC[C@H]1C(=O)N[C@H](C(=O)N[C@@H](CC(N)=O)C(=O)N[C@H](C(=O)NCC(=O)N[C@@H](CO)C(=O)N[C@@H](CC(N)=O)C(=O)N[C@H](C(=O)N[C@@H](Cc1ccc(O)cc1)C(N)=O)[C@@H](C)O)C(C)C)[C@@H](C)O

Potency Luciferase: 0.1 nM
B4: N-alpha-[(S)-4-Carboxy-4-(19-carboxynonadecanoylamino)butyryl]-Glu-His-His-[Arg1,His17]-pramlintide (peptide)
peptide: {C20 diacid-γGlu}-EHHRCNTATCATQRLANFLHHSSNNFGPILPPTNVGSNTY-NH2
modifications: disulfide 5-10
SMILES: CC[C@H](C)[C@H](NC(=O)[C@@H]1CCCN1C(=O)CNC(=O)[C@H](Cc1ccccc1)NC(=O)[C@H](CC(N)=O)NC(=O)[C@H](CC(N)=O)NC(=O)[C@H](CO)NC(=O)[C@H](CO)NC(=O)[C@H](Cc1c[nH]cn1)NC(=O)[C@H](Cc1c[nH]cn1)NC(=O)[C@H](CC(C)C)NC(=O)[C@H](Cc1ccccc1)NC(=O)[C@H](CC(N)=O)NC(=O)[C@H](C)NC(=O)[C@H](CC(C)C)NC(=O)[C@H](CCCNC(=N)N)NC(=O)[C@H](CCC(N)=O)NC(=O)[C@@H](NC(=O)[C@H](C)NC(=O)[C@@H]1CSSC[C@H](NC(=O)[C@H](CCCNC(=N)N)NC(=O)[C@H](Cc2c[nH]cn2)NC(=O)[C@H](Cc2c[nH]cn2)NC(=O)[C@H](CCC(=O)O)NC(=O)CC[C@H](NC(=O)CCCCCCCCCCCCCCCCCCC(=O)O)C(=O)O)C(=O)N[C@@H](CC(N)=O)C(=O)N[C@@H]([C@@H](C)O)C(=O)N[C@@H](C)C(=O)N[C@@H]([C@@H](C)O)C(=O)N1)[C@@H](C)O)C(=O)N[C@@H](CC(C)C)C(=O)N1CCC[C@H]1C(=O)N1CCC[C@H]1C(=O)N[C@H](C(=O)N[C@@H](CC(N)=O)C(=O)N[C@H](C(=O)NCC(=O)N[C@@H](CO)C(=O)N[C@@H](CC(N)=O)C(=O)N[C@H](C(=O)N[C@@H](Cc1ccc(O)cc1)C(N)=O)[C@@H](C)O)C(C)C)[C@@H](C)O

Potency Luciferase: 0.2 nM
B5: N-alpha-[(S)-4-Carboxy-4-(19-carboxynonadecanoylamino)butyryl]-Glu-His-His-[Arg1,Arg17]-pramlintide (peptide)
peptide: {C20 diacid-γGlu}-EHHRCNTATCATQRLANFLRHSSNNFGPILPPTNVGSNTY-NH2
modifications: disulfide 5-10
SMILES: CC[C@H](C)[C@H](NC(=O)[C@@H]1CCCN1C(=O)CNC(=O)[C@H](Cc1ccccc1)NC(=O)[C@H](CC(N)=O)NC(=O)[C@H](CC(N)=O)NC(=O)[C@H](CO)NC(=O)[C@H](CO)NC(=O)[C@H](Cc1c[nH]cn1)NC(=O)[C@H](CCCNC(=N)N)NC(=O)[C@H](CC(C)C)NC(=O)[C@H](Cc1ccccc1)NC(=O)[C@H](CC(N)=O)NC(=O)[C@H](C)NC(=O)[C@H](CC(C)C)NC(=O)[C@H](CCCNC(=N)N)NC(=O)[C@H](CCC(N)=O)NC(=O)[C@@H](NC(=O)[C@H](C)NC(=O)[C@@H]1CSSC[C@H](NC(=O)[C@H](CCCNC(=N)N)NC(=O)[C@H](Cc2c[nH]cn2)NC(=O)[C@H](Cc2c[nH]cn2)NC(=O)[C@H](CCC(=O)O)NC(=O)CC[C@H](NC(=O)CCCCCCCCCCCCCCCCCCC(=O)O)C(=O)O)C(=O)N[C@@H](CC(N)=O)C(=O)N[C@@H]([C@@H](C)O)C(=O)N[C@@H](C)C(=O)N[C@@H]([C@@H](C)O)C(=O)N1)[C@@H](C)O)C(=O)N[C@@H](CC(C)C)C(=O)N1CCC[C@H]1C(=O)N1CCC[C@H]1C(=O)N[C@H](C(=O)N[C@@H](CC(N)=O)C(=O)N[C@H](C(=O)NCC(=O)N[C@@H](CO)C(=O)N[C@@H](CC(N)=O)C(=O)N[C@H](C(=O)N[C@@H](Cc1ccc(O)cc1)C(N)=O)[C@@H](C)O)C(C)C)[C@@H](C)O

Potency Luciferase: 0.1 nM
B6: N-alpha-[(S)-4-Carboxy-4-(19-carboxynonadecanoylamino)butyryl]-Glu-His-His-[His1,His17]-pramlintide (peptide)
peptide: {C20 diacid-γGlu}-EHHHCNTATCATQRLANFLHHSSNNFGPILPPTNVGSNTY-NH2
modifications: disulfide 5-10
SMILES: CC[C@H](C)[C@H](NC(=O)[C@@H]1CCCN1C(=O)CNC(=O)[C@H](Cc1ccccc1)NC(=O)[C@H](CC(N)=O)NC(=O)[C@H](CC(N)=O)NC(=O)[C@H](CO)NC(=O)[C@H](CO)NC(=O)[C@H](Cc1c[nH]cn1)NC(=O)[C@H](Cc1c[nH]cn1)NC(=O)[C@H](CC(C)C)NC(=O)[C@H](Cc1ccccc1)NC(=O)[C@H](CC(N)=O)NC(=O)[C@H](C)NC(=O)[C@H](CC(C)C)NC(=O)[C@H](CCCNC(=N)N)NC(=O)[C@H](CCC(N)=O)NC(=O)[C@@H](NC(=O)[C@H](C)NC(=O)[C@@H]1CSSC[C@H](NC(=O)[C@H](Cc2c[nH]cn2)NC(=O)[C@H](Cc2c[nH]cn2)NC(=O)[C@H](Cc2c[nH]cn2)NC(=O)[C@H](CCC(=O)O)NC(=O)CC[C@H](NC(=O)CCCCCCCCCCCCCCCCCCC(=O)O)C(=O)O)C(=O)N[C@@H](CC(N)=O)C(=O)N[C@@H]([C@@H](C)O)C(=O)N[C@@H](C)C(=O)N[C@@H]([C@@H](C)O)C(=O)N1)[C@@H](C)O)C(=O)N[C@@H](CC(C)C)C(=O)N1CCC[C@H]1C(=O)N1CCC[C@H]1C(=O)N[C@H](C(=O)N[C@@H](CC(N)=O)C(=O)N[C@H](C(=O)NCC(=O)N[C@@H](CO)C(=O)N[C@@H](CC(N)=O)C(=O)N[C@H](C(=O)N[C@@H](Cc1ccc(O)cc1)C(N)=O)[C@@H](C)O)C(C)C)[C@@H](C)O
